experiment: soluble on expression in E. coli; label from the status in PepcDB or PDB records

| Sequence | soluble on expression in E. coli |
| --- | --- |
| MGHHHHHHSHMGKWHVGGRRGSPRQWGATARGRDLEAVRRGGCGSVGRRRQRRRRRRRRMRRMRRMWATQGLAVRVALSVLPGSRALRPGDCEVCISYLGRFYQDLKDRDVTFSPATIENELIKFCREARGKENRLCYYIGATDDAATKIINEVSKPLAHHIPVEKICEKLKKKDSQICELKYDKQIDLSTVDLKKLRVKELKKILDDWGETCKGCAEKSDYIRKINELMPKYAPKAASAPTDL | not soluble |
| SKAQEKGEAISLAFKGVKAEFLKRPEADVHFVCNDGHVIDEMLDHTIATGERVNRDVKIIALCPSLHGQEPMAEFALTLSIKKAAQHTKKAA | not soluble |
| MGLTAMGLTTMGLTTVGLATMGATTKISQQHFFKFSRSDPIVLLQYSYSTTTVPRPYPTNNSKPISLQKTKTQFFLNYSNPTVLLQYLYSTTTVPRPYPTTNPKLISLQQPKTPFLSPRIRLVLREHERCRGALSDVWVAGAARGAVRCAKLYNKTRHVIRKISANKRKLFPLFYCYTYIHTYKNQVSPEKNANQKGKRMFPRFMVGVALIFELNNYDIETSCSHSSSSFSARLSSADYEVYWARALQILHVGGVEIDEFGGG | not soluble |
| SRVSVTDYKRLLDSGAFHLLLDVRPQVEVDICRLPHALHIPLKHLERRDAESLKLLKEAIWEEKQGTQEGAAVPIYVICKLGNDSQKAVKILQSLSAAQELDPLTVRDVVGGLMAWAAKIDGTFPQY | soluble |
| MTVTLAGNPIEVGGHFPQVGEIVENFILVGNDLADVALNDFASKRKVLNIFPSIDTGVCATSVRKFNQQAAKLSNTIVLCISADLPFAQARFCGAEGIENAKTVSTFRNHALHSQLGVDIQTGPLAGLTSRAVIVLDEQNNVLHSQLVEEIKEEPNYEAALAVLA | soluble |
| MSLRESMRIELELQTDNFTVIPYNHQYYLASAIYNKIHSANPAYAKRLHNYQKFKFFTFSLLQIRKRVIRKEGIETIDGKAYLYISSPNNEFIENFVAGLLEDGKLRVGNVEFFVRKAKILPIPKKFNILKTISPIYLKTMIETEDGLKTYDLLPNNSKFYENLKNNLKKKYEAFYNEKCDMNFEFEVLKFRPKRMRIKNDIYCRCSEMVFKVWGDYDLIKFGYECGFGEKNSMGFGMVVNVEDKNQKNKKLKTKIEGHHHHHH | soluble |
| SSEQAIIVSAINHSLAQFSCHLIDGVTGSGKTEVYLQSMEEVLANNQQVLVIVPEIGLTPQTLNRFEQRFNVPIALHHSGLNDKERLATWLSAQQGSAAIVIGTRSAVFTPLHRLGLIIIDEEHDSSLKQQDSFRYHCRDMAILRARQLNIPIVLGTATP | not soluble |
| MGSDKIHHHHHHMRLDSISIANFRNHTLLEFEPGHSITNIYGRNGSGKTSILEAIHYCALTRGFSGNNDREYLKFGEELFTIRSSFTSGQGIATKVSITYSPKREKRILVNEQELQTFSSHIGTIPCVTFTPREMVIINGAPAERRRFIDTAICQYDRKYLSDLLLYRRILQQRNALLSSEQDPRVIDSALDVLTDQLVAIATEIVLVRKRFIEHFTSMLGGVYQWIPEGAEPSILYQSSLGHHENLYEKDKIQQVFRERFETLKQQELQRRQTLAGPHRDDLQFYLNKREIRKYASQGQQRAFLVAMKMTLQGYLYEASGEIPITLLDDLFSELDEVVSGTMVETLATKGQVIITSTEKKKGKGISFFSVDDYKSSKEP | not soluble |
| MDHHHHHHHHASENLYFQGHMNLDLAYRSFVLGVAGHPQVERLIKHRAKGLVRRYVAGETLEEALKAAEALEREGVHAILDLLGEMVRTEEEARAFQRGLLELVWALAGKPWPKYISLKLTQLGLDLSEDLALALLREVLREAEPRGVFVRLDMEDSPRVEATLRLYRALREEGFSQVGIVLQSYLYRTEKDLLDLLPYRPNLRLVKGAYREPKEVAFPDKRLIDAEYLHLGKLALKEGLYVAFATHDPRIIAELKRYTEAMGIPRSRFEFQFLYGVRPEEQRRLAREGYTVRAYVPYGRDWYPYLTRRIAERPENLLLVLRSLVSG | soluble |
| MGSDKIHHHHHHMLEVKKLTVCYNDFLALNEISLKIQEGALTGIFGPNGAGKSTLLKAMLNIIPHQGEVSINNEDINKKLVKIAYVEQKADIDFTFPIKVKECVSMGTYAGMKVFQRIKNAEWQKVSKALEKVDMGKYSNHQIGELSGGQFQRVLLARCLAQNADFIFLDEPFVGIDLVSERIIMDTLKELKHQGKTVLIVHHDLSKVKKYFDNIILLNRNLIAHGSVESVFNEENLKKAYGDTIFIGEGE | not soluble |
| MGSDKIHHHHHHMAPEDWLRAQMQGEIVALVHSHPGGLPWLSEADRRLQVQSDLPWWLVCRGTIHKFRCVPHLTGRRFEHGVTDCYTLFRDAYHLAGIEMPDFHRGDDWWRHGQNLYLDNLEATGLYQVPLSSAQPGDVLLCCFGSSVPNHAAIYCGDGELLHHIPEQLSKRERYTDKWQRRTHSLWRHREWHASAFTGICNDLAAASTFV | not soluble |
| MYSANPTLGYYVPPLDVNNLTDQQTAISIEHLSLYYQQSRALSDISMRIPKGQVTAFIGPSGCGKSTLLRCINRMNDLVEGTRVEGEVKLHGKNIYHPDVDVPTLRRRVGMVFQRPNPFPKSIYENVVYGLRLQGIKNSRALDDAAEQSLRAAALWDEVKHRLHENAFGLSGGQQQRLVIARAIAIEPEVLLLDEPTSALDPISTLTIEELIHDLKTKYTVVIVTHNMQQAARVSDHTAFIHMGKLIEYADTDSIFTSPLKKQTEDYITGRYG | not soluble |
| MSLERPLCISYIRFSKATQAEGSSLERQLQLSRTYAEEHGLVLDDKHSYQDLGKSAFTSEHVKEGEFGVFLEFVKQGRVPKGSVLLVESLDRLSRESVLTAFKQFQEILDAGIKIVTLSDKMEYTKEGFEANIGNIFISLGIMARANEESLRKSERICAAWRLKRKNLHNIKLTANCPGWLELTPDKKDFILKEDRVEIVKQIFELSLSGLGVKAISTILNKQKIEPFRSKIGWYQTTVRKILSNSAVIGEFQPHVFGSKHSKPVPDGELIKDYFPPIIDTDTFYAVQAKLKNGAHRPGRTAKVENLFSGYTRCGYCGSRMDVVARHNVGGEVRYLVCDSARRGVKCSYISMKCNEIEKAFFEYCREIDIRYVLRAEQQADQNRLNELRKSLTARNGKLMKVQKQIDMLNVFLDDITERAELEHYHEQIKKKLEEKTNLSEEIEKLSKGICIAEYDNNNIDVRVQNLLTLDKAQNKSVKEDDKIMFRIRLRDELRQIISQILVYPRGSVFSDEQIEQKERDYEIKIKSASDSEKHILKHEKTIDLDGMRQSQQNTKDDRFFVVRFKNGNYRTIKYDKKQQAYRVTSELINDKLNWWMGNKEMAPIFREEEELHPFETEFELDSNEGHHHHHH | not soluble |
| VPSPDDTEVTVARLTSMSSAEEPLTAGRDGLLSLLRNGQLPSRGAKAPQRERYQRIVAAAMELASEGGYDAVQMRAIADRAGVALGTVYRYFPSKNHMLVMGLLMVFEGMRSRFEDVAIPGDTPSERILFVLRKNTEVLEKDRPRYEALVRAFMFADASASAELDAFGALMTEMFAKTIGVEQISDDQLNAIRVIGDVWMSSLVSWVAGRISVDEVMAHLGLAVRLVFRRLGG | not soluble |
| MMRTWQSKLHVTQHEVKLLVTCPEQGDVLKARLPPHARHPRALLTLLEGLSLYNGQPQRIALHVDERFRLTAGLFGDELWPGESPLVQYDVAHRARQCGRLSGIGDFRALRRGSP | not soluble |
| LTETGALFKLEVALLKDKVTLTLDTTGPSLFKRGYRIEKGGAPLKENMAAALVMLTNWRKDRPFYDPVCGSGTICIEAALIGHNIAPGFNRSFTCETWDWVDPAIFEKVRNEAEAKADYDVELDICGSDVDGRMIEVARANAEEVGLGDSITFKQLALKDFTTEKEYGVMVANPPYGERLGEEESVRRLYKEMGHVFRPLTTWSKYILTSDLAFEEYYGAKATKKRKLYNGALRTDLFQYWGTRPPRKPRED | not soluble |
| MLGTISMRFFATKVVAPRASVAASTPQVPLGMNINPYAMFIKENFKANTSDMKRTDLMKELSGKWKALSISEKDKYTELSKNYNAQKLDDFMKLSTEEQKKLVDSAKEKKAERASRRHAKERREKRKQSGRPSVPPSAYALFIKEKLSGAGMESKEKMKEAVAQWKAFTDSQKKKYTDEAKKLKDEYHVVLQKWEAEQKENADQ | not soluble |
